From article PMC7491320, “Pdc2/Pat1 increases the range of decay factors and RNA bound by the Lsm1–7 complex”

B1: U15 (FAM) (ssRNA)
RNA: UUUUUUUUUUUUUUU
B2: U15 (SEC-MALS) (ssRNA)
RNA: UUUUUUUUUUUUUUU

What was measured:
Lsm1-7 complex [1] = molecular target: T1, Lsm1-7 complex (Schizosaccharomyces pombe, UniProt P87173;O94408;Q9Y7M4;O14352;O42978;Q9UUI1;O74499 …); assay: fluorescence polarization; 5 mM Mg2+; strongly favored; FP: 200 mM NaCl, 20 mM HEPES pH 7.0, 1 mM DTT, 5 mM MgCl2, 0.3 ug/uL acetylated BSA, 500 pM 5'-FAM RNA, 22 C; conditions: protein: recombinant; tags: N-terminal His6-TEV on Lsm1, TEV-treated; copies: 1;1;1;1;1;1;1; label: 5'-FAM
[2] = molecular target: T2, PatMC (Pat1/Pdc2 middle and C-terminal domains);Lsm1-7 complex (Schizosaccharomyces …, UniProt O42958;P87173;O94408;Q9Y7M4;O14352;O42978;Q9UUI1;O74499 …, |); assay: fluorescence polarization; 5 mM Mg2+; Hill ~1; affinity not affected by PatMC; FP: 200 mM NaCl, 20 mM HEPES pH 7.0, 1 mM DTT, 5 mM MgCl2, 0.3 ug/uL acetylated BSA, 500 pM 5'-FAM RNA, 22 C; conditions: protein: recombinant;recombinant; tags: none stated in coexpressed complex;N-terminal His6-TEV on Lsm1, TEV-treated; copies: 1;1;1;1;1;1;1;1; label: 5'-FAM
Lsm1-7 complex [3] = molecular target: T1, Lsm1-7 complex; assay: SEC-MALS; monomeric complex; FP: 200 mM NaCl, 20 mM HEPES pH 7.0, 1 mM DTT, 5 mM MgCl2, 0.3 ug/uL acetylated BSA, 500 pM 5'-FAM RNA, 22 C; conditions: protein: recombinant; tags: N-terminal His6-TEV on Lsm1, TEV-treated; copies: 1;1;1;1;1;1;1
[4] = molecular target: T2, PatMC (Pat1/Pdc2 middle and C-terminal …); assay: SEC-MALS; stoichiometric RNA; dimeric and tetrameric assemblies; FP: 200 mM NaCl, 20 mM HEPES pH 7.0, 1 mM DTT, 5 mM MgCl2, 0.3 ug/uL acetylated BSA, 500 pM 5'-FAM RNA, 22 C; conditions: protein: recombinant;recombinant; tags: none stated in coexpressed complex;N-terminal His6-TEV on Lsm1, TEV-treated; copies: 1;1;1;1;1;1;1;1

Binder	binding result (Lsm1-7 complex [1])	binding result [2]	binding result (Lsm1-7 complex [3])	binding result [4]
B1	binds	binds	–	–
B2	–	–	binds	binds
